Assay [1] addresses PHD finger protein (AT1G54390) (Arabidopsis thaliana). The assay is described as follows: TAP-MS, N-terminal GS tag.
Assay [2] has as its target T1, SE (SERRATE) (Arabidopsis thaliana).
T1 sequence (Q9ZVD0 1-720, looked up): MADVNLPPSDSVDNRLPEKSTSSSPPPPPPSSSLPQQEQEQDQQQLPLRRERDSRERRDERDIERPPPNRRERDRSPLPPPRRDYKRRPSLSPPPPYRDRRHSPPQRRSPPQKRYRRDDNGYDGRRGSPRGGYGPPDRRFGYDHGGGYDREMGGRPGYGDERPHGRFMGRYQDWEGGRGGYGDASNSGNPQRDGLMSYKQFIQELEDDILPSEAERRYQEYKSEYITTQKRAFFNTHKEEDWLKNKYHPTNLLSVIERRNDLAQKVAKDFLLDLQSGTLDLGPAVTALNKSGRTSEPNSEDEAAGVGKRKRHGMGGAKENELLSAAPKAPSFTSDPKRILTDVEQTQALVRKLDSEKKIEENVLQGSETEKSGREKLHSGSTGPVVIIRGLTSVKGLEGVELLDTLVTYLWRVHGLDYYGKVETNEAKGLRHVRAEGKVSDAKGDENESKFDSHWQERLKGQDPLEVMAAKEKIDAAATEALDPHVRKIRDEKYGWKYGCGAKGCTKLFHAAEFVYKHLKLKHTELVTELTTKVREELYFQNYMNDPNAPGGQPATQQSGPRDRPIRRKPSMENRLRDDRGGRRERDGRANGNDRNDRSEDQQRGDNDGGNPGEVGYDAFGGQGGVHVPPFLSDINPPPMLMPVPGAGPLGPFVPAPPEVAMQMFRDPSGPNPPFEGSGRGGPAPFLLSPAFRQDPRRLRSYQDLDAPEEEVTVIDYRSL
The assay is described as follows: TAP-MS, N-terminal GS tag.

For assay [3], the target named is T2, TAF14B, GAS41 (Arabidopsis thaliana).
T2 sequence (Q9FH40 1-268, looked up): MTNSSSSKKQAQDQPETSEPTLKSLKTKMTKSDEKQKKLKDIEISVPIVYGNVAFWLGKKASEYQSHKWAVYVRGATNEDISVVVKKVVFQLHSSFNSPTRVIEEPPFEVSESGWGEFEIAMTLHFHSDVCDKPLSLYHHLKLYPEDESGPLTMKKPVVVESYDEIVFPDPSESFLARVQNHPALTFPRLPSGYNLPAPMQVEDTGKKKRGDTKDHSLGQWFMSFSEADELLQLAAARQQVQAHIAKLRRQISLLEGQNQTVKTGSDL
The assay is described as follows: TAP-MS, N-terminal GS tag.

Assay [4] deals with T3, actin-related protein 7 (ARP7) (Arabidopsis thaliana).
T3 sequence (Q8L4Y5 1-363, looked up): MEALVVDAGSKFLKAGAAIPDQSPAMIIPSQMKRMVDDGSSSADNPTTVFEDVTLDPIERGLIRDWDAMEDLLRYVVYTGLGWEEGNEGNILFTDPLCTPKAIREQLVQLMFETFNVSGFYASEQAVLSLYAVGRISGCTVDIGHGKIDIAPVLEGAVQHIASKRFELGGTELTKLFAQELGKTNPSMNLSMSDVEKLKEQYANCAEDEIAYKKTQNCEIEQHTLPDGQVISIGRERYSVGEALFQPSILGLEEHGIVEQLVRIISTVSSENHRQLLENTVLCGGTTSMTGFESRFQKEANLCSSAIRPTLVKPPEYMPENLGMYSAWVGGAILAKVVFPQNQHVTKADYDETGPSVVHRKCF
Description: TAP-MS, N-terminal GS tag.

For assay [5], the target named is chaperonin (AT5G26360) (Arabidopsis thaliana). Description: TAP-MS, N-terminal GS tag.
Assay [6] concerns the target protein coding (AT5G14240) (Arabidopsis thaliana). The assay is described as follows: TAP-MS, N-terminal GS tag.
The target of assay [7] is 26S proteasome regulatory subunit (RPN9) (Arabidopsis thaliana). Description: TAP-MS, C-terminal GS tag.
Assay [8] has as its target DNA-binding bromodomain-containing protein (AT1G20670) (Arabidopsis thaliana). The assay is described as follows: TAP-MS, C-terminal GS tag.
Assay [9] concerns the target G2484-1, agenet domain-containing protein (Arabidopsis thaliana). Description: TAP-MS, C-terminal GS tag.
In assay [10] the target is SNF2 protein (BRM) (Arabidopsis thaliana). The assay is described as follows: TAP-MS, C-terminal GS tag.
For assay [11], the target named is SWIB complex BAF60b domain-containing protein (Swp73B) (Arabidopsis thaliana). The assay is described as follows: TAP-MS, C-terminal GS tag.
Assay [12] has as its target T4, SWIRM domain-containing protein (SWI3C) (Arabidopsis thaliana).
T4 sequence (Q9XI07 1-807, looked up): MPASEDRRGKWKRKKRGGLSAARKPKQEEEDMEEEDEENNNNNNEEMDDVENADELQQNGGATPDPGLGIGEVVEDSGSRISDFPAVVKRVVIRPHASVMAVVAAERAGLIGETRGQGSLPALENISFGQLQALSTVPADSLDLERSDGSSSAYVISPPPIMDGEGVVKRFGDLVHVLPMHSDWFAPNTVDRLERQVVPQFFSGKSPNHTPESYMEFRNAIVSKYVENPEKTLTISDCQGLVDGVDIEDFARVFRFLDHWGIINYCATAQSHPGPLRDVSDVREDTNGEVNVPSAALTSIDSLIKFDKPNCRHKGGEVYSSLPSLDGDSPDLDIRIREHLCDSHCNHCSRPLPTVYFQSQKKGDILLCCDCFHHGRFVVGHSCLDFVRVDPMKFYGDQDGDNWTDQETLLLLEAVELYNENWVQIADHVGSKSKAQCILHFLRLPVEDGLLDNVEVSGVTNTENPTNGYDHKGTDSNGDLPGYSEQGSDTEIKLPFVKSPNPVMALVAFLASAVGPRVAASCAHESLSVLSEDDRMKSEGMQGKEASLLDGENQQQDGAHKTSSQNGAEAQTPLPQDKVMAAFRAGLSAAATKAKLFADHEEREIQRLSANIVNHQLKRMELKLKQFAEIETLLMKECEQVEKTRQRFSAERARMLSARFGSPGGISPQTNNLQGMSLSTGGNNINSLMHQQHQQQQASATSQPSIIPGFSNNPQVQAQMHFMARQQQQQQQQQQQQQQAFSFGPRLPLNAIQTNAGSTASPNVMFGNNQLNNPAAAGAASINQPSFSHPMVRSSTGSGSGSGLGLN
The assay is described as follows: TAP-MS, C-terminal GS tag.

Assay [13] has as its target T5, actin-related protein 4 (ARP4) (Arabidopsis thaliana).
T5 sequence (Q84M92 1-441, looked up): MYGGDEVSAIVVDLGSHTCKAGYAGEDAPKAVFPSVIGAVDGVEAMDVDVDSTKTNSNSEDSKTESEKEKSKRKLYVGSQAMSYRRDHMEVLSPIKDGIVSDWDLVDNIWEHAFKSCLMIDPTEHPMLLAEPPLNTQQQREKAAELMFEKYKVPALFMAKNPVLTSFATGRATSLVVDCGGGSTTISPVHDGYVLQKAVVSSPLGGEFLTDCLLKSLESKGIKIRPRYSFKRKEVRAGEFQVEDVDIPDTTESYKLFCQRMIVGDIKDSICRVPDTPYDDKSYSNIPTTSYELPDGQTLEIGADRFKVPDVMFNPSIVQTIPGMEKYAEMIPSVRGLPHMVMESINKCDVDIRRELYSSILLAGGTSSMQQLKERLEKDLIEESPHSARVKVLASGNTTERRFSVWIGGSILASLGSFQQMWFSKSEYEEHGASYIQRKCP
The assay is described as follows: TAP-MS, C-terminal GS tag.

In assay [14] the target is T3, actin-related protein 7 (ARP7) (Arabidopsis thaliana). Description: TAP-MS, C-terminal GS tag.
The target of assay [15] is chromatin remodeling protein (SYD) (Arabidopsis thaliana). The assay is described as follows: TAP-MS, C-terminal GS tag.
For assay [16], the target named is expressed protein (AT5G13030) (Arabidopsis thaliana). Description: TAP-MS, C-terminal GS tag.
Assay [17] concerns the target expressed protein, similar to At3g03460 (AT5G17510) (Arabidopsis thaliana). The assay is described as follows: TAP-MS, C-terminal GS tag.
The target in assay [18] is expressed protein, similar to At4g22320 (AT5G55210) (Arabidopsis thaliana). The assay is described as follows: TAP-MS, C-terminal GS tag.
Assay [19] concerns the target expressed protein, similar to DAG protein (AT3G15000) (Arabidopsis thaliana). The assay is described as follows: TAP-MS, C-terminal GS tag.
In assay [20] the target is homeobox-leucine zipper protein (HB-2)/HD-ZIP protein (Arabidopsis thaliana). Description: TAP-MS, C-terminal GS tag.
Assay [21] has as its target importin alpha-1 subunit (IMPA1) (Arabidopsis thaliana). The assay is described as follows: TAP-MS, C-terminal GS tag.
In assay [22] the target is importin alpha-1 subunit (IMPA4) (Arabidopsis thaliana). Description: TAP-MS, C-terminal GS tag.
The target in assay [23] is importin alpha-2 (IMPA2) (Arabidopsis thaliana). Description: TAP-MS, C-terminal GS tag.
In assay [24] the target is importin beta-2 (Arabidopsis thaliana). Description: TAP-MS, C-terminal GS tag.
In assay [25] the target is T6, phytochrome A supressor spa1 (SPA1) (Arabidopsis thaliana).
T6 sequence (Q9SYX2 1-1029, looked up): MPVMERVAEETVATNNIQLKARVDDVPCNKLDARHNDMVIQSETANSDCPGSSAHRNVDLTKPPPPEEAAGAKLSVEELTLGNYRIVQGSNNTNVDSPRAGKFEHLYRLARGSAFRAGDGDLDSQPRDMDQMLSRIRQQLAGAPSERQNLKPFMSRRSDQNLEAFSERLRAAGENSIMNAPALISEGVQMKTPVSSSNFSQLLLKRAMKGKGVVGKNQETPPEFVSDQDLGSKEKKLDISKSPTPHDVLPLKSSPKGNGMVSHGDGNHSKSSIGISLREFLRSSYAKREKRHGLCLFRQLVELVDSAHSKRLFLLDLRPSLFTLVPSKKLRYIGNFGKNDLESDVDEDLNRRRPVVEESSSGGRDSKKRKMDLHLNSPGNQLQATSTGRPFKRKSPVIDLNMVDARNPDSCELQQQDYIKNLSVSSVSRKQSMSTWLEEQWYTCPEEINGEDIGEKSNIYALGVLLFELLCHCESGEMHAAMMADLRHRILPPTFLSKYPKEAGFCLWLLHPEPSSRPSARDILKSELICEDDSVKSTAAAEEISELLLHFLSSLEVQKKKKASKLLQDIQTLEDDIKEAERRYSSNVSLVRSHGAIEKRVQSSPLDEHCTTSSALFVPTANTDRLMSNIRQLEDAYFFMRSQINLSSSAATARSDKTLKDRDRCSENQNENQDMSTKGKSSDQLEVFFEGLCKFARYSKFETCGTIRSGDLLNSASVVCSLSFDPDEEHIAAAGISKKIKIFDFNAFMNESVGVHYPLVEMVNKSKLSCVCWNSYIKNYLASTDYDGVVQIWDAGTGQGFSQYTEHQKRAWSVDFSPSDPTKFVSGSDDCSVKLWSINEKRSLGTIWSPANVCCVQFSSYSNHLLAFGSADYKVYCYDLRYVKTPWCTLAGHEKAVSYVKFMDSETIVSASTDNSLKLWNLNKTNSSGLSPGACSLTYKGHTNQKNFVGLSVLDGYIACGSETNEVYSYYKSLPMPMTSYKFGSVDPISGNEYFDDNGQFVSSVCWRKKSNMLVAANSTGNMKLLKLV
The assay is described as follows: TAP-MS, C-terminal GS tag.

Assay [26] concerns the target splicing factor (AT3G55220) (Arabidopsis thaliana). The assay is described as follows: TAP-MS, C-terminal GS tag.

B1: GS-ARP4 (protein, UniProt Q84M92 1-441, looked up)
Actin-related protein 4: T5 sequence (Q84M92 1-441, looked up)
modifications: N-terminal GS tag
B1: the N-GS (times co-purified) in assay [1] came out at 1; in assay [2], 1; in [3] it was 2; in assay [4], 2; in assay [5] it was 2; in assay [6], 2.

B2: AN3-GS (protein, UniProt Q8L8A5 1-210, looked up)
GRF1-interacting factor 1: MQQHLMQMQPMMAGYYPSNVTSDHIQQYLDENKSLILKIVESQNSGKLSECAENQARLQRNLMYLAAIADSQPQPPSVHSQYGSAGGGMIQGEGGSHYLQQQQATQQQQMTQQSLMAARSSMLYAQQQQQQQPYATLQHQQLHHSQLGMSSSSGGGGSSGLHILQGEAGGFHDFGRGKPEMGSGGGGEGRGGSSGDGGETLYLKSSDDGN
modifications: C-terminal GS tag
For B2, the C-GS (times co-purified) in [7] amounted to 1; in assay [8], 1; in assay [9] it was 4; in [10], 4; in [11] it was 4; in assay [12] it was 4. In addition, the C-GS (times co-purified) in assay [13] was found to be 4; in [14], 4; in assay [15], 4; in [16] it was 1; in assay [17], 3; in [18] it was 4. Also, the C-GS (times co-purified) in assay [19] was found to be 3; in assay [20], 1; in assay [21], 4; in assay [22], 1; in assay [23], 4; in assay [24], 4. Besides, the C-GS (times co-purified) in assay [25] and in assay [26] was 1 each time.
